Paper PMC4691284 (Developmental cell, 2015)

B1: FCHSD2 F-BAR domain (domain or fragment, human, UniProt O94868 8-282, looked up)
chain: VKVTQELKNIQVEQMTKLQAKHQAECDLLEDMRTFSQKKAAIEREYAQGMQKLASQYLKRDWPGVKADDRNDYRSMYPVWKSFLEGTMQVAQSRMNICENYKNFISEPARTVRSLKEQQLKRCVDQLTKIQTELQETVKDLAKGKKKYFETEQMAHAVREKADIEAKSKLSLFQSRISLQKASVKLKARRSECNSKATHARNDYLLTLAAANAHQDRYYQTDLVNIMKALDGNVYDHLKDYLIAFSRTELETCQAVQNTFQFLLENSSKVVRDYN
B2: Gas7 F-BAR domain (domain or fragment, human, UniProt O60861 196-456, looked up)
chain: TEWSYCDYFWADKKDPQGNGTVAGFELLLQKQLKGKQMQKEMSEFIRERIKIEEDYAKNLAKLSQNSLASQEEGSLGEAWAQVKKSLADEAEVHLKFSAKLHSEVEKPLMNFRENFKKDMKKCDHHIADLRKQLASRYASVEKARKALTERQRDLEMKTQQLEIKLSNKTEEDIKKARRKSTQAGDDLMRCVDLYNQAQSKWFEEMVTTTLELERLEVERVEMIRQHLCQYTQLRHETDMFNQSTVEPVDQLLRKVDPAKD
B3: FCHSD1 F-BAR domain (domain or fragment, human, UniProt Q86WN1 12-282, looked up)
chain: QEVKLRFLEQLSILQTWQQREADLLEDIRSYSKQRAAIEREYGQALQKLAGPFLKREGHRSGEMDSRGRTVFGAWRCLLDATVAGGQTRLQASDRYRDLAGGTGRSAKEQVLRKGTENLQRAQAEVLQSVRELSRSRKLYGQRERVWALAQEKAADVQARLNRSDHGIFHSRTSLQKLSTKLSAQSAQYSQQLQAARNEYLLNLVATNAHLDHYYQEELPALLKALVSELSEHLRDPLTSLSHTELEAAEVILEHAHRGEQTTSQVSWEQD

Molecular target: the molecule itself
Test: AUC

Protein | stoichiometry N [dimers]
B1 | > 2
B2 | > 2
B3 | > 2
